US20130052192A1 (Novo Nordisk, published 2013)

Target: T1, human CD62P (P-Selectin) on the surface of activated platelets (human, UniProt P16109 42-830)
T1 sequence: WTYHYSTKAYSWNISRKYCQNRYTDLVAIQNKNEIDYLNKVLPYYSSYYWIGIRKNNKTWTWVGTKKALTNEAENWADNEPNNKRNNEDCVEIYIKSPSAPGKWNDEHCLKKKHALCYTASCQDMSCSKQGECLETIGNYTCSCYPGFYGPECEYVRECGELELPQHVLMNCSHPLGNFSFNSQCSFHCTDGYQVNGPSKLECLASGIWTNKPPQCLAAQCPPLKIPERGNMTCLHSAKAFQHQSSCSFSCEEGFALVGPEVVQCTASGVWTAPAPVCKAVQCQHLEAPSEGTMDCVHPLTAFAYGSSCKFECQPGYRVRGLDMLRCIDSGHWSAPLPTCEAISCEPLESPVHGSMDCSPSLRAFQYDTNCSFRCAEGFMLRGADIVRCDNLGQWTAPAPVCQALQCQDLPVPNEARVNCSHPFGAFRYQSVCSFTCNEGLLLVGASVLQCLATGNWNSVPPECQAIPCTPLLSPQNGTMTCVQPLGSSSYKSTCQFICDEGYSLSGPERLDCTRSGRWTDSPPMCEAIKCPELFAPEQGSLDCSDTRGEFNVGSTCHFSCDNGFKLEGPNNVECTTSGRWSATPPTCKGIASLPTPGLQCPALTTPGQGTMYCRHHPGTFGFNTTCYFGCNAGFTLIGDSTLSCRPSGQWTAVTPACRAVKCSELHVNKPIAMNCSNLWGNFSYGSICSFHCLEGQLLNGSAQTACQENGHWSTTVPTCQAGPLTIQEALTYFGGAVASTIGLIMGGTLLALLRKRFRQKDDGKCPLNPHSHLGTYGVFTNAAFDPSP
Assay: FACS on activated human platelets; sample incubated without Thrombin
Description: In short, blood from healthy donors was drawn by venipuncture of the antecubital vein. […] Platelet preparations were produced by making a standard Platelet Rich Plasma (PRP). Here, anti-coagulated whole blood was centrifuged (200 g for 15 minutes) without brake. […] Platelets were washed and prepared for staining. […] 50-100,000 cells were used per well.

B1: EP-FpA-PB1.3 mAb construct, incubated without Thrombin (uncleaved) (antibody, human IgG4, V domains shown)
VH: EAQLQQSGPELVEPGASVKVSCKASGYTFTNYVMHWVKQKPGQGLEWIGFINPSNDGPKYNERFKNKATLTSDKSSSTAYMELSSLTSEVSAVYFCARARPGFDWYFDVWGAGTTVTVSS
VL: DIVMTQSQKFMSTSVGDRVSVTCKASQNVATNVVWYQQRPGQSPKALIYTASYRFSGVPERFSGSGSGTDFTLTITNVQSEDLADYFCQQYNNYPYTFGGGTKVEIQR
notes: also called Sample 2
  binding result: no binding
